According to US20150037339A1:

Legend:
[1] = target: Activin A (homodimer of two inhibin βA subunits; R&D Systems, #338-AC) (human) (UniProt P08476); assay: SPR blocking: 5 nM Activin A + 0.00 nM binder over hActRIIB-hFc (Control 4) surface
[2] = target: Activin A (homodimer of two inhibin βA subunits; R&D Systems, #338-AC) (human) (UniProt P08476); assay: SPR blocking: 5 nM Activin A + 60 nM binder over hActRIIA-hFc surface
[3] = target: Activin A (homodimer of two inhibin βA subunits; R&D Systems, #338-AC) (human) (UniProt P08476); assay: SPR blocking: 5 nM Activin A + 3.75 nM binder over Follistatin-288 surface
[4] = target: Activin A (homodimer of two inhibin βA subunits; R&D Systems, #338-AC) (human) (UniProt P08476); assay: SPR blocking: 5 nM Activin A + 30 nM binder over Follistatin-288 surface
[5] = target: Activin A (homodimer of two inhibin βA subunits; R&D Systems, #338-AC) (human) (UniProt P08476); assay: SPR blocking: 5 nM Activin A + 15 nM binder over Follistatin-288 surface
[6] = target: Activin A (homodimer of two inhibin βA subunits; R&D Systems, #338-AC) (human) (UniProt P08476); assay: SPR blocking: 5 nM Activin A + 15 nM binder over hActRIIA-hFc surface
[7] = target: Activin A (homodimer of two inhibin βA subunits; R&D Systems, #338-AC) (human) (UniProt P08476); assay: SPR blocking: 5 nM Activin A + 0 nM binder over Follistatin-288 surface
[8] = target: Activin A (homodimer of two inhibin βA subunits; R&D Systems, #338-AC) (human) (UniProt P08476); assay: SPR blocking: 5 nM Activin A + 15 nM binder over hActRIIB-hFc (Control 4) surface
[9] = target: Activin A (homodimer of two inhibin βA subunits; R&D Systems, #338-AC) (human) (UniProt P08476); assay: SPR blocking: 5 nM Activin A + 60 nM binder over Follistatin-288 surface
[10] = target: Activin A (homodimer of two inhibin βA subunits; R&D Systems, #338-AC) (human) (UniProt P08476); assay: SPR blocking: 5 nM Activin A + 3.75 nM binder over hActRIIA-hFc surface
[11] = target: Activin A (homodimer of two inhibin βA subunits; R&D Systems, #338-AC) (human) (UniProt P08476); assay: SPR blocking: 5 nM Activin A + 1.88 nM binder over hActRIIB-hFc (Control 4) surface
[12] = target: Activin A (homodimer of two inhibin βA subunits; R&D Systems, #338-AC) (human) (UniProt P08476); assay: SPR blocking: 5 nM Activin A + 30 nM binder over hActRIIB-hFc (Control 4) surface
[13] = target: Activin A (homodimer of two inhibin βA subunits; R&D Systems, #338-AC) (human) (UniProt P08476); assay: SPR blocking: 5 nM Activin A + 0.94 nM binder over hActRIIA-hFc surface
[14] = target: Activin A (homodimer of two inhibin βA subunits; R&D Systems, #338-AC) (human) (UniProt P08476); assay: SPR blocking: 5 nM Activin A + 0.00 nM binder over hActRIIA-hFc surface
[15] = target: Activin A (homodimer of two inhibin βA subunits; R&D Systems, #338-AC) (human) (UniProt P08476); assay: SPR blocking: 5 nM Activin A + 1.88 nM binder over Follistatin-288 surface
[16] = target: Activin A (homodimer of two inhibin βA subunits; R&D Systems, #338-AC) (human) (UniProt P08476); assay: SPR blocking: 5 nM Activin A + 30 nM binder over hActRIIA-hFc surface
[17] = target: Activin A (homodimer of two inhibin βA subunits; R&D Systems, #338-AC) (human) (UniProt P08476); assay: SPR blocking: 5 nM Activin A + 7.50 nM binder over hActRIIA-hFc surface
[18] = target: Activin A (homodimer of two inhibin βA subunits; R&D Systems, #338-AC) (human) (UniProt P08476); assay: SPR blocking: 5 nM Activin A + 0.94 nM binder over hActRIIB-hFc (Control 4) surface
[19] = target: Activin A (homodimer of two inhibin βA subunits; R&D Systems, #338-AC) (human) (UniProt P08476); assay: SPR blocking: 5 nM Activin A + 7.50 nM binder over hActRIIB-hFc (Control 4) surface
[20] = target: Activin A (homodimer of two inhibin βA subunits; R&D Systems, #338-AC) (human) (UniProt P08476); assay: SPR blocking: 5 nM Activin A + 60 nM binder over hActRIIB-hFc (Control 4) surface
[21] = target: Activin A (homodimer of two inhibin βA subunits; R&D Systems, #338-AC) (human) (UniProt P08476); assay: SPR blocking: 5 nM Activin A + 1.88 nM binder over hActRIIA-hFc surface
[22] = target: Activin A (homodimer of two inhibin βA subunits; R&D Systems, #338-AC) (human) (UniProt P08476); assay: SPR blocking: 5 nM Activin A + 7.5 nM binder over Follistatin-288 surface
[23] = target: Activin A (homodimer of two inhibin βA subunits; R&D Systems, #338-AC) (human) (UniProt P08476); assay: SPR blocking: 5 nM Activin A + 3.75 nM binder over hActRIIB-hFc (Control 4) surface
[24] = target: Activin A (homodimer of two inhibin βA subunits; R&D Systems, #338-AC) (human) (UniProt P08476); assay: SPR blocking: 5 nM Activin A + 0.94 nM binder over Follistatin-288 surface
[25] = target: hBMP4 (human) (UniProt P12644); assay: SPR (Biacore 4000), captured on anti-human Fc, 200 nM ligand injected, 37 C
[26] = target: GDF11 (human) (UniProt O95390); assay: as above
[27] = target: Activin B (human) (UniProt P09529); assay: as above
[28] = target: hBMP9 (human) (UniProt Q9UK05); assay: as above
[29] = target: Activin A (human) (UniProt P08476); assay: as above
[30] = target: hBMP7 (human) (UniProt P18075); assay: as above
[31] = target: Activin AC (human) (UniProt P55103); assay: as above
[32] = target: hBMP6 (human) (UniProt P22004); assay: as above
[33] = target: Activin AB (human) (UniProt P08476); assay: as above
[34] = target: GDF8 (human) (UniProt O14793); assay: as above
[35] = target: hBMP2 (human) (UniProt P12643); assay: as above
[36] = target: hBMP10 (human) (UniProt O95393); assay: as above
[37] = target: Activin A (human) (UniProt P08476); assay: Octet cross-competition; binder on sensor tip; 50 nM hActivin A pre-bound with 1 uM Control 3 (col 11); dark grey box
[38] = target: Activin A (human) (UniProt P08476); assay: Octet cross-competition; binder on sensor tip; 50 nM hActivin A pre-bound with 1 uM Control 1 (col 10); dark grey box
[39] = target: Activin A (human) (UniProt P08476); assay: Octet cross-competition; binder on sensor tip; 50 nM hActivin A pre-bound with 1 uM H4H10432P2 (col 7); dark grey box
[40] = target: Activin A (human) (UniProt P08476); assay: Octet cross-competition; binder on sensor tip; 50 nM hActivin A pre-bound with 1 uM H4H10423P (col 4); dark grey box
[41] = target: Activin A (human) (UniProt P08476); assay: Octet cross-competition; binder on sensor tip; 50 nM hActivin A pre-bound with 1 uM H4H10446P2 (col 1); dark grey box
[42] = target: Activin A (human) (UniProt P08476); assay: Octet cross-competition; binder on sensor tip; 50 nM hActivin A pre-bound with 1 uM H4H10429P (col 6); dark grey box
[43] = target: Activin A (human) (UniProt P08476); assay: Octet cross-competition; binder on sensor tip; 50 nM hActivin A mixed with 1 uM Isotype control 12 (-) (col 12); light grey box (self)
[44] = target: Activin A (human) (UniProt P08476); assay: Octet cross-competition; binder on sensor tip; 50 nM hActivin A mixed with 1 uM Isotype control 13 (-) (col 13); light grey box (self)

Activin A (homodimer of two inhibin βA subunits; R&D Systems, #338-AC) (human), sequence (P08476 311-426 limits assumed): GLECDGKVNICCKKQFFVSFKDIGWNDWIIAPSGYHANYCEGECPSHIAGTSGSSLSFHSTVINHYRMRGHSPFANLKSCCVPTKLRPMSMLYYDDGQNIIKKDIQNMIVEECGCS
Activin A (human), sequence (P08476 311-426 limits assumed): as above
GDF11 (human), sequence (O95390 299-407 limits assumed): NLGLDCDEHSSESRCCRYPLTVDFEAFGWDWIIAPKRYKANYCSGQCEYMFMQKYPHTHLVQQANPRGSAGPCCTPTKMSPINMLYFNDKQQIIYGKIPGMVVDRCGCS
Activin AB (human), sequence (P08476 311-426 limits assumed, chain 1 of 2): as the sequence (P08476 311-426 limits assumed) above
Activin AB (human), sequence (chain, as listed by the source limits assumed, chain 2 of 2): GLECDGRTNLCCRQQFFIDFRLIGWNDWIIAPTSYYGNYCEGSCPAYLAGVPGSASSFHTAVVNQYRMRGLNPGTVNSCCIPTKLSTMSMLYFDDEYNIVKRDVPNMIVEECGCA
Activin AC (human), sequence (chain, as listed by the source, chain 1 of 2): as the sequence (P08476 311-426 limits assumed) above
Activin AC (human), sequence (P55103 237-352, chain 2 of 2): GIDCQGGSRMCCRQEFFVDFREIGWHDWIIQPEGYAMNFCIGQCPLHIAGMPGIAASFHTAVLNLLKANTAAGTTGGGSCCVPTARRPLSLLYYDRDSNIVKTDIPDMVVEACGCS
Activin B (human), sequence (P09529 293-407 G326S limits assumed): as the sequence (chain, as listed by the source limits assumed, chain 2 of 2) above
hBMP7 (human), sequence (P18075 293-431 limits assumed): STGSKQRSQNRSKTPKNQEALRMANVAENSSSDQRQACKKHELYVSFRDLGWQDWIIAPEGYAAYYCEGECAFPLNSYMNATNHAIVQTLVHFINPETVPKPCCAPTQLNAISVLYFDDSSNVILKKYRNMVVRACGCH
hBMP4 (human), sequence (P12644 293-408 limits assumed): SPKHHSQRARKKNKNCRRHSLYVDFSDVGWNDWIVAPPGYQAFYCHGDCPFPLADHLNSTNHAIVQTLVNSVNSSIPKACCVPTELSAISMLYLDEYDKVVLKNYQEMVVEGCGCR
hBMP10 (human), sequence (O95393 317-424 limits assumed): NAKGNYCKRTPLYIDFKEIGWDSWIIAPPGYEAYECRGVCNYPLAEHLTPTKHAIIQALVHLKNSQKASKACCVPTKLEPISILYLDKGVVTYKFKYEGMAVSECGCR
hBMP9 (human), sequence (Q9UK05 320-429 limits assumed): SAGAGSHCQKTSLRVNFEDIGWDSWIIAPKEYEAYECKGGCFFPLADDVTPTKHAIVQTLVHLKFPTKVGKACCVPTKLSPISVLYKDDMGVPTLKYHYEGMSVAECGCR
hBMP2 (human), sequence (P12643 283-396 limits assumed): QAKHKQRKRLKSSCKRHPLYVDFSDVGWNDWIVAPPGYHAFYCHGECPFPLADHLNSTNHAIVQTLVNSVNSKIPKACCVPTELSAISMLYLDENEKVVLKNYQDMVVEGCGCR
hBMP6 (human), sequence (P22004 382-513 limits assumed): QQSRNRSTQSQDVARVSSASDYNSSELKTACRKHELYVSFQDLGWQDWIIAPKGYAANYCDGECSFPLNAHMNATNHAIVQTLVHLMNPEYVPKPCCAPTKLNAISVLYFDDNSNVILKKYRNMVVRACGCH

Substance	% bound RU w/no inhibitor [1] [%]	% bound RU w/no inhibitor [2] [%]	% bound RU w/no inhibitor [3] [%]	% bound RU w/no inhibitor [4] [%]	% bound RU w/no inhibitor [5] [%]	% bound RU w/no inhibitor [6] [%]	% bound RU w/no inhibitor [7] [%]	% bound RU w/no inhibitor [8] [%]	% bound RU w/no inhibitor [9] [%]	% bound RU w/no inhibitor [10] [%]	% bound RU w/no inhibitor [11] [%]	% bound RU w/no inhibitor [12] [%]	% bound RU w/no inhibitor [13] [%]	% bound RU w/no inhibitor [14] [%]	% bound RU w/no inhibitor [15] [%]	% bound RU w/no inhibitor [16] [%]	% bound RU w/no inhibitor [17] [%]	% bound RU w/no inhibitor [18] [%]	% bound RU w/no inhibitor [19] [%]	% bound RU w/no inhibitor [20] [%]	also measured
Control 3 (murine anti-Activin A monoclonal antibody from R&D Systems, catalog number MAB3381)	100	0	145	7	5	1	100	2	9	139	133	1	207	100	170	1	32	135	33	2	% bound RU w/no inhibitor [21]: 190%; % bound RU w/no inhibitor [22]: 33%; % bound RU w/no inhibitor [23]: 120%; % bound RU w/no inhibitor [24]: 172%
Isotype Control mAb (antibody)	–	–	–	–	–	–	–	–	–	–	–	–	–	–	–	–	–	–	–	–	binding response (resonance units) for 200 nM ligand [25]: 0.4 RU; binding response (resonance units) for 200 nM ligand [26]: 3 RU; binding response (resonance units) for 200 nM ligand [27]: 1.9 RU; binding response (resonance units) for 200 nM ligand [28]: -1 RU; binding response (resonance units) for 200 nM ligand [29]: -0.1 RU; binding response (resonance units) for 200 nM ligand [30]: 4.3 RU; binding response (resonance units) for 200 nM ligand [31]: -0.1 RU; binding response (resonance units) for 200 nM ligand [32]: 5.1 RU; binding response (resonance units) for 200 nM ligand [33]: -0.1 RU; binding response (resonance units) for 200 nM ligand [34]: 0.5 RU; binding response (resonance units) for 200 nM ligand [35]: -1 RU; binding response (resonance units) for 200 nM ligand [36]: 0.3 RU
isotype control antibodies (antibody)	–	–	–	–	–	–	–	–	–	–	–	–	–	–	–	–	–	–	–	–	binding response [37]: 0.2; binding response [38]: 0.26; binding response [39]: 0.14; binding response [40]: 0.18; binding response [41]: 0.22; binding response [42]: 0.22; binding response [43]: 0.15; binding response [44]: 0.24
isotype control antibody (Example 8)	100	119	97	104	102	116	100	110	103	110	105	111	109	100	102	118	115	105	107	115	% bound RU w/no inhibitor [21]: 112%; % bound RU w/no inhibitor [22]: 102%; % bound RU w/no inhibitor [23]: 104%; % bound RU w/no inhibitor [24]: 100%
